Data as given in patent US20140087995A1 (published 2014).
Numbered stars: 1 amine (or outer) side, 2 acyl side, 3 side chain; on linkers, the order of the positions; unused ones are H or OH. Bridge positions count the residues as written; N and C are the ends. Side chains are listed from the residue outwards. Ends that are not written are not given here. * marks the point of attachment. C20 diacid = O=C(O)CCCCCCCCCCCCCCCCCCC(=O)*; γGlu = O=C(O)[C@H](CCC(=O)[*:2])N[*:1]

T1: human amylin 3(a) receptor (human calcitonin receptor co-expressed with RAMP-3) (human, UniProt P30988 25-474; O60896 24-148, limits assumed)
T1 sequence (looked up) 1: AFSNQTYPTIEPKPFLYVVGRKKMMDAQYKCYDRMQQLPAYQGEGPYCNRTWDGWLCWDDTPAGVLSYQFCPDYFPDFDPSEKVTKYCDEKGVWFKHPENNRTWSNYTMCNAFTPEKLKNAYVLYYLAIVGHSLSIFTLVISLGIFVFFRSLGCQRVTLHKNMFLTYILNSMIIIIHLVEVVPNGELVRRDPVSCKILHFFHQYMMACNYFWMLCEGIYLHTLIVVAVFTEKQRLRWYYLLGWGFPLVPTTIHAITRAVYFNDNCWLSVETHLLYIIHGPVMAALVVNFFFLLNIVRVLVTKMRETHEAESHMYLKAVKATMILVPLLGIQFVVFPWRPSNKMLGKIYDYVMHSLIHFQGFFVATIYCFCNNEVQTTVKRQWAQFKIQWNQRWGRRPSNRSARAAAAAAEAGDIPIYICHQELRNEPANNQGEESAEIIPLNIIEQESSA
T1 sequence (looked up) 2: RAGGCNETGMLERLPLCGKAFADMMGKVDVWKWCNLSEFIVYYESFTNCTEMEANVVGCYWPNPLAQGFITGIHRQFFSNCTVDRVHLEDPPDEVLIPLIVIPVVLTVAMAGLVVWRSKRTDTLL

T2: human calcitonin receptor (human, UniProt P30988 25-474)
T2 sequence (looked up): T1 sequence (looked up) 1

B1: N^-1-[(4S)-4-carboxy-4-(19-carboxynonadecanoylamino)butanoyl]-Gly[Arg1,His14,Arg17,Pro21,Pro27,His34]-h-amylin (peptide)
peptide: {C20 diacid-γGlu}-GRCNTATCATQRLAHFLRHSSPNFGAIPSSTNVGHNTY-NH2
modifications: disulfide 3-8
SMILES: CC[C@H](C)[C@H](NC(=O)[C@H](C)NC(=O)CNC(=O)[C@H](Cc1ccccc1)NC(=O)[C@H](CC(N)=O)NC(=O)[C@@H]1CCCN1C(=O)[C@H](CO)NC(=O)[C@H](CO)NC(=O)[C@H](Cc1c[nH]cn1)NC(=O)[C@H](CCCNC(=N)N)NC(=O)[C@H](CC(C)C)NC(=O)[C@H](Cc1ccccc1)NC(=O)[C@H](Cc1c[nH]cn1)NC(=O)[C@H](C)NC(=O)[C@H](CC(C)C)NC(=O)[C@H](CCCNC(=N)N)NC(=O)[C@H](CCC(N)=O)NC(=O)[C@@H](NC(=O)[C@H](C)NC(=O)[C@@H]1CSSC[C@H](NC(=O)[C@H](CCCNC(=N)N)NC(=O)CNC(=O)CC[C@H](NC(=O)CCCCCCCCCCCCCCCCCCC(=O)O)C(=O)O)C(=O)N[C@@H](CC(N)=O)C(=O)N[C@@H]([C@@H](C)O)C(=O)N[C@@H](C)C(=O)N[C@@H]([C@@H](C)O)C(=O)N1)[C@@H](C)O)C(=O)N1CCC[C@H]1C(=O)N[C@@H](CO)C(=O)N[C@@H](CO)C(=O)N[C@H](C(=O)N[C@@H](CC(N)=O)C(=O)N[C@H](C(=O)NCC(=O)N[C@@H](Cc1c[nH]cn1)C(=O)N[C@@H](CC(N)=O)C(=O)N[C@H](C(=O)N[C@@H](Cc1ccc(O)cc1)C(N)=O)[C@@H](C)O)C(C)C)[C@@H](C)O
notes: also called compound 100
B2: N^ε1-[(4S)-4-carboxy-4-[[(4S)-4-carboxy-4-(19-carboxynonadecanoylamino)butanoyl]amino]butanoyl]-[Glu14,Arg17,Pro21,Pro27,Arg34]-h-amylin (peptide)
peptide: K([γGlu-γGlu-C20 diacid])CNTATCATQRLAEFLRHSSPNFGAIPSSTNVGRNTY-NH2
modifications: disulfide 2-7; N-terminus assumed
SMILES: CC[C@H](C)[C@H](NC(=O)[C@H](C)NC(=O)CNC(=O)[C@H](Cc1ccccc1)NC(=O)[C@H](CC(N)=O)NC(=O)[C@@H]1CCCN1C(=O)[C@H](CO)NC(=O)[C@H](CO)NC(=O)[C@H](Cc1c[nH]cn1)NC(=O)[C@H](CCCNC(=N)N)NC(=O)[C@H](CC(C)C)NC(=O)[C@H](Cc1ccccc1)NC(=O)[C@H](CCC(=O)O)NC(=O)[C@H](C)NC(=O)[C@H](CC(C)C)NC(=O)[C@H](CCCNC(=N)N)NC(=O)[C@H](CCC(N)=O)NC(=O)[C@@H](NC(=O)[C@H](C)NC(=O)[C@@H]1CSSC[C@H](NC(=O)[C@@H](N)CCCCNC(=O)CC[C@H](NC(=O)CC[C@H](NC(=O)CCCCCCCCCCCCCCCCCCC(=O)O)C(=O)O)C(=O)O)C(=O)N[C@@H](CC(N)=O)C(=O)N[C@@H]([C@@H](C)O)C(=O)N[C@@H](C)C(=O)N[C@@H]([C@@H](C)O)C(=O)N1)[C@@H](C)O)C(=O)N1CCC[C@H]1C(=O)N[C@@H](CO)C(=O)N[C@@H](CO)C(=O)N[C@H](C(=O)N[C@@H](CC(N)=O)C(=O)N[C@H](C(=O)NCC(=O)N[C@@H](CCCNC(=N)N)C(=O)N[C@@H](CC(N)=O)C(=O)N[C@H](C(=O)N[C@@H](Cc1ccc(O)cc1)C(N)=O)[C@@H](C)O)C(C)C)[C@@H](C)O
notes: also called compound 88
B3: N^ε1-[(4S)-4-carboxy-4-[[(4S)-4-carboxy-4-(19-carboxynonadecanoylamino)butanoyl]amino]butanoyl]-[Glu14,Arg17,Pro21,Pro27,Pro34,Arg35]-h-amylin (peptide)
peptide: K([γGlu-γGlu-C20 diacid])CNTATCATQRLAEFLRHSSPNFGAIPSSTNVGPRTY-NH2
modifications: disulfide 2-7; N-terminus assumed
SMILES: CC[C@H](C)[C@H](NC(=O)[C@H](C)NC(=O)CNC(=O)[C@H](Cc1ccccc1)NC(=O)[C@H](CC(N)=O)NC(=O)[C@@H]1CCCN1C(=O)[C@H](CO)NC(=O)[C@H](CO)NC(=O)[C@H](Cc1c[nH]cn1)NC(=O)[C@H](CCCNC(=N)N)NC(=O)[C@H](CC(C)C)NC(=O)[C@H](Cc1ccccc1)NC(=O)[C@H](CCC(=O)O)NC(=O)[C@H](C)NC(=O)[C@H](CC(C)C)NC(=O)[C@H](CCCNC(=N)N)NC(=O)[C@H](CCC(N)=O)NC(=O)[C@@H](NC(=O)[C@H](C)NC(=O)[C@@H]1CSSC[C@H](NC(=O)[C@@H](N)CCCCNC(=O)CC[C@H](NC(=O)CC[C@H](NC(=O)CCCCCCCCCCCCCCCCCCC(=O)O)C(=O)O)C(=O)O)C(=O)N[C@@H](CC(N)=O)C(=O)N[C@@H]([C@@H](C)O)C(=O)N[C@@H](C)C(=O)N[C@@H]([C@@H](C)O)C(=O)N1)[C@@H](C)O)C(=O)N1CCC[C@H]1C(=O)N[C@@H](CO)C(=O)N[C@@H](CO)C(=O)N[C@H](C(=O)N[C@@H](CC(N)=O)C(=O)N[C@H](C(=O)NCC(=O)N1CCC[C@H]1C(=O)N[C@@H](CCCNC(=N)N)C(=O)N[C@H](C(=O)N[C@@H](Cc1ccc(O)cc1)C(N)=O)[C@@H](C)O)C(C)C)[C@@H](C)O
notes: also called compound 110
B4: N^ε1-[(4S)-4-carboxy-4-[[(4S)-4-carboxy-4-(19-carboxynonadecanoylamino)butanoyl]amino]butanoyl]-[His14,Arg17,Pro21,Pro27]-h-amylin (peptide)
peptide: K([γGlu-γGlu-C20 diacid])CNTATCATQRLAHFLRHSSPNFGAIPSSTNVGSNTY-NH2
modifications: disulfide 2-7; N-terminus assumed
SMILES: CC[C@H](C)[C@H](NC(=O)[C@H](C)NC(=O)CNC(=O)[C@H](Cc1ccccc1)NC(=O)[C@H](CC(N)=O)NC(=O)[C@@H]1CCCN1C(=O)[C@H](CO)NC(=O)[C@H](CO)NC(=O)[C@H](Cc1c[nH]cn1)NC(=O)[C@H](CCCNC(=N)N)NC(=O)[C@H](CC(C)C)NC(=O)[C@H](Cc1ccccc1)NC(=O)[C@H](Cc1c[nH]cn1)NC(=O)[C@H](C)NC(=O)[C@H](CC(C)C)NC(=O)[C@H](CCCNC(=N)N)NC(=O)[C@H](CCC(N)=O)NC(=O)[C@@H](NC(=O)[C@H](C)NC(=O)[C@@H]1CSSC[C@H](NC(=O)[C@@H](N)CCCCNC(=O)CC[C@H](NC(=O)CC[C@H](NC(=O)CCCCCCCCCCCCCCCCCCC(=O)O)C(=O)O)C(=O)O)C(=O)N[C@@H](CC(N)=O)C(=O)N[C@@H]([C@@H](C)O)C(=O)N[C@@H](C)C(=O)N[C@@H]([C@@H](C)O)C(=O)N1)[C@@H](C)O)C(=O)N1CCC[C@H]1C(=O)N[C@@H](CO)C(=O)N[C@@H](CO)C(=O)N[C@H](C(=O)N[C@@H](CC(N)=O)C(=O)N[C@H](C(=O)NCC(=O)N[C@@H](CO)C(=O)N[C@@H](CC(N)=O)C(=O)N[C@H](C(=O)N[C@@H](Cc1ccc(O)cc1)C(N)=O)[C@@H](C)O)C(C)C)[C@@H](C)O
notes: also called compound 92
B5: N^ε1-[(4S)-4-carboxy-4-[[(4S)-4-carboxy-4-(19-carboxynonadecanoylamino)butanoyl]amino]butanoyl]-[Glu14,Arg17,Pro21,Pro27,Arg35]-h-amylin (peptide)
peptide: K([γGlu-γGlu-C20 diacid])CNTATCATQRLAEFLRHSSPNFGAIPSSTNVGSRTY-NH2
modifications: disulfide 2-7; N-terminus assumed
SMILES: CC[C@H](C)[C@H](NC(=O)[C@H](C)NC(=O)CNC(=O)[C@H](Cc1ccccc1)NC(=O)[C@H](CC(N)=O)NC(=O)[C@@H]1CCCN1C(=O)[C@H](CO)NC(=O)[C@H](CO)NC(=O)[C@H](Cc1c[nH]cn1)NC(=O)[C@H](CCCNC(=N)N)NC(=O)[C@H](CC(C)C)NC(=O)[C@H](Cc1ccccc1)NC(=O)[C@H](CCC(=O)O)NC(=O)[C@H](C)NC(=O)[C@H](CC(C)C)NC(=O)[C@H](CCCNC(=N)N)NC(=O)[C@H](CCC(N)=O)NC(=O)[C@@H](NC(=O)[C@H](C)NC(=O)[C@@H]1CSSC[C@H](NC(=O)[C@@H](N)CCCCNC(=O)CC[C@H](NC(=O)CC[C@H](NC(=O)CCCCCCCCCCCCCCCCCCC(=O)O)C(=O)O)C(=O)O)C(=O)N[C@@H](CC(N)=O)C(=O)N[C@@H]([C@@H](C)O)C(=O)N[C@@H](C)C(=O)N[C@@H]([C@@H](C)O)C(=O)N1)[C@@H](C)O)C(=O)N1CCC[C@H]1C(=O)N[C@@H](CO)C(=O)N[C@@H](CO)C(=O)N[C@H](C(=O)N[C@@H](CC(N)=O)C(=O)N[C@H](C(=O)NCC(=O)N[C@@H](CO)C(=O)N[C@@H](CCCNC(=N)N)C(=O)N[C@H](C(=O)N[C@@H](Cc1ccc(O)cc1)C(N)=O)[C@@H](C)O)C(C)C)[C@@H](C)O
notes: also called compound 89
B6: N^ε1-[(4S)-4-carboxy-4-[[(4S)-4-carboxy-4-(19-carboxynonadecanoylamino)butanoyl]amino]butanoyl]-[Glu14,Arg17,Pro21,Pro27,His34,Glu35]-h-amylin (peptide)
peptide: K([γGlu-γGlu-C20 diacid])CNTATCATQRLAEFLRHSSPNFGAIPSSTNVGHETY-NH2
modifications: disulfide 2-7; N-terminus assumed
SMILES: CC[C@H](C)[C@H](NC(=O)[C@H](C)NC(=O)CNC(=O)[C@H](Cc1ccccc1)NC(=O)[C@H](CC(N)=O)NC(=O)[C@@H]1CCCN1C(=O)[C@H](CO)NC(=O)[C@H](CO)NC(=O)[C@H](Cc1c[nH]cn1)NC(=O)[C@H](CCCNC(=N)N)NC(=O)[C@H](CC(C)C)NC(=O)[C@H](Cc1ccccc1)NC(=O)[C@H](CCC(=O)O)NC(=O)[C@H](C)NC(=O)[C@H](CC(C)C)NC(=O)[C@H](CCCNC(=N)N)NC(=O)[C@H](CCC(N)=O)NC(=O)[C@@H](NC(=O)[C@H](C)NC(=O)[C@@H]1CSSC[C@H](NC(=O)[C@@H](N)CCCCNC(=O)CC[C@H](NC(=O)CC[C@H](NC(=O)CCCCCCCCCCCCCCCCCCC(=O)O)C(=O)O)C(=O)O)C(=O)N[C@@H](CC(N)=O)C(=O)N[C@@H]([C@@H](C)O)C(=O)N[C@@H](C)C(=O)N[C@@H]([C@@H](C)O)C(=O)N1)[C@@H](C)O)C(=O)N1CCC[C@H]1C(=O)N[C@@H](CO)C(=O)N[C@@H](CO)C(=O)N[C@H](C(=O)N[C@@H](CC(N)=O)C(=O)N[C@H](C(=O)NCC(=O)N[C@@H](Cc1c[nH]cn1)C(=O)N[C@@H](CCC(=O)O)C(=O)N[C@H](C(=O)N[C@@H](Cc1ccc(O)cc1)C(N)=O)[C@@H](C)O)C(C)C)[C@@H](C)O

The binders below were run against T1, human amylin 3(a) receptor (human …) (assay: cell-based or functional assay).

Row | Binder | hAmylin-R funct. EC50
1 | B1 | 0.253 nM
2 | B2 | 0.773 nM
3 | B3 | 0.278 nM
4 | B4 | 0.085 nM
5 | B5 | 0.404 nM
6 | B6 | 0.445 nM

What follows are binders tested against T2, human calcitonin receptor (assay: cell-based or functional assay).

Row | Binder | Ratio hCT/hAmylin funct. | hCTR funct. EC50
7 | B1 | 6.8 | 1.73 nM
8 | B2 | 8.5 | 6.55 nM
9 | B3 | 29.3 | 8.16 nM
10 | B4 | 28 | 2.38 nM
11 | B5 | 27.8 | 11.2 nM
12 | B6 | 15.8 | 7.05 nM
